Reference: PMC10653854

Assays:
[1] = target: Zika virus (ZIKV) soluble E ectodomain (sE) (Zika virus); test: SEC-MALS
[2] = target: Zika virus (ZIKV) soluble E ectodomain (sE) (Zika virus); test: SEC-MALS; pH 8.0; isolated proteins sampled individually; Superdex 200

Zika virus (ZIKV) soluble E ectodomain (sE) (domain or fragment)
stoichiometry N [1]: 2
stoichiometry N [2]: 2
